Variants at the floor of the assay were thinned out.
How the values were obtained:
biotinyl-Phe-oxazolone = assay: self-aminoacylation, catalytic enhancement (BFO) (fold over background); higher = more active; k-Seq, kA / k0A0; sequences stand for … in GGGAAUGGAUCCACAUCUACGAAUUC…UUCACUGCAGACUUGACGAAGCUG
Procedure, shortened: (§1)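 Mutagenized RNA pools (0.43 μM; 21-nt variable region) were treated with 2–1250 μM of each biotinyl-aminoacyl-oxazolone. Conditions were 50 μL HEPES/NaCl/KCl/MgCl2/CaCl2 buffer, 5% acetonitrile, pH 6.9–7.0, room temperature, 90 minutes. Catalytic enhancement, the median kA relative to the uncatalyzed rate, was derived from streptavidin capture, qPCR and Illumina sequencing.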

biotinyl-Ile-oxazolone = assay: self-aminoacylation, catalytic enhancement (BIO) (fold over background); higher = more active; k-Seq, kA / k0A0; sequences stand for … in GGGAAUGGAUCCACAUCUACGAAUUC…UUCACUGCAGACUUGACGAAGCUG
Procedure, shortened: as §1

biotinyl-Met-oxazolone = assay: self-aminoacylation, catalytic enhancement (BMO) (fold over background); higher = more active; k-Seq, kA / k0A0; sequences stand for … in GGGAAUGGAUCCACAUCUACGAAUUC…UUCACUGCAGACUUGACGAAGCUG
Procedure, shortened: as §1

biotinyl-Val-oxazolone = assay: self-aminoacylation, catalytic enhancement (BVO) (fold over background); higher = more active; k-Seq, kA / k0A0; sequences stand for … in GGGAAUGGAUCCACAUCUACGAAUUC…UUCACUGCAGACUUGACGAAGCUG
Procedure, shortened: as §1

biotinyl-Leu-oxazolone = assay: self-aminoacylation, catalytic enhancement (BLO) (fold over background); higher = more active; k-Seq, kA / k0A0; sequences stand for … in GGGAAUGGAUCCACAUCUACGAAUUC…UUCACUGCAGACUUGACGAAGCUG
Procedure, shortened: as §1

biotinyl-Trp-oxazolone = assay: self-aminoacylation, catalytic enhancement (BWO) (fold over background); higher = more active; k-Seq, kA / k0A0; sequences stand for … in GGGAAUGGAUCCACAUCUACGAAUUC…UUCACUGCAGACUUGACGAAGCUG
Procedure, shortened: as §1

Sequence | self-aminoacylation (biotinyl-Phe-oxazolone) | self-aminoacylation (biotinyl-Ile-oxazolone) | self-aminoacylation (biotinyl-Met-oxazolone) | self-aminoacylation (biotinyl-Val-oxazolone) | self-aminoacylation (biotinyl-Leu-oxazolone) | self-aminoacylation (biotinyl-Trp-oxazolone)
GUGCUUCAAACAAUCGGUCUG [Fam1A.1 aminoacylation ribozyme variant] | 195 | 2.57 | 2.69 | 2.39 | 4.85 | 79.6
GUUAACCUAGGUCAUCGGGUG [Fam2.2 aminoacylation ribozyme variant] | 77.3 | 7.79 | 11.9 | 6.73 | 16.1 | 12.7
GUUAACCUGGUCAUCGAGUGA [Fam2.1 aminoacylation ribozyme variant] | 24.2 | 4.69 | 6.75 | 3.95 | 6.73 | 8.69
GUUACCAUGGUCAUCGAGUGA [Fam2.1 aminoacylation ribozyme variant] | 28.3 | 5.01 | 8.11 | 5.22 | 9.59 | 10.3
GUUACCCUGCUCAUCGAGUGA [Fam2.1 aminoacylation ribozyme variant] | 8.33 | 1.66 | 3.06 | 1.79 | 2.23 | 3.45
GUUACCCUGGUCAGCGAGUGA [Fam2.1 aminoacylation ribozyme variant] | 42.9 | 4.8 | 6.72 | 4.05 | 6.76 | 7.95
GUUACCCUGGUCAUCAAGUGA [Fam2.1 aminoacylation ribozyme variant] | 11 | 2.37 | 3.81 | 2.08 | 3.12 | 4.39
GUUACCCUGGUCAUCGAGUAA [Fam2.1 aminoacylation ribozyme variant] | 93.6 | 6.86 | 22.6 | 7.98 | 21.8 | 18.7
GUUACCCUGGUCAUCGAGUCA [Fam2.1 aminoacylation ribozyme variant] | 1.64 | 0.936 | 1.26 | 1.46 | 1.28 | 1.1
GUUACCCUGGUCAUCGAGUGA [Fam2.1 aminoacylation ribozyme variant] | 747 | 35.2 | 99 | 38.3 | 100 | 101
GUUACCCUGGUCAUCGAGUGC [Fam2.1 aminoacylation ribozyme variant] | 33.8 | 4.28 | 12.9 | 4.94 | 13 | 9.64
GUUACCCUGGUCAUCGAGUUA [Fam2.1 aminoacylation ribozyme variant] | 23.1 | 4.48 | 12 | 5.21 | 11.1 | 10
GUUACCCUGGUCAUCGCGUGA [Fam2.1 aminoacylation ribozyme variant] | 212 | 11.2 | 25.3 | 14.8 | 25.2 | 26.8
GUUACCCUGGUCAUCGGGUGA [Fam2.1 aminoacylation ribozyme variant] | 503 | 30.9 | 89.7 | 36.7 | 92.1 | 90.7
GUUACCCUGGUCAUGGAGUGA [Fam2.1 aminoacylation ribozyme variant] | 36.2 | 3.51 | 4.85 | 3.36 | 5.89 | 7.15
GUUACCCUGGUCGUCGAGUGA [Fam2.1 aminoacylation ribozyme variant] | 9.01 | 1.5 | 2.13 | 1.6 | 1.9 | 2.24
GUUACCCUGGUCUUCGAGUGA [Fam2.1 aminoacylation ribozyme variant] | 50.7 | 4.45 | 8.47 | 5.01 | 8.79 | 10.1
GUUACCCUGGUGAUCGAGUGA [Fam2.1 aminoacylation ribozyme variant] | 34.8 | 3.37 | 6.75 | 3.33 | 7.43 | 8.86
GUUACGCUGGUCAUCGAGUGA [Fam2.1 aminoacylation ribozyme variant] | 59.2 | 5.57 | 7.2 | 4.86 | 8.34 | 10.6
GUUCAACUAGGUCAUCGGGUG [Fam2.2 aminoacylation ribozyme variant] | 42.6 | 4.28 | 5.04 | 4.16 | 6.94 | 6.75
GUUCACCUAAGUCAUCGGGUG [Fam2.2 aminoacylation ribozyme variant] | 51.4 | 5.38 | 7.53 | 5.4 | 9.78 | 7.87
GUUCACCUAGGACAUCGGGUG [Fam2.2 aminoacylation ribozyme variant] | 16.3 | 3.61 | 3.24 | 3.56 | 4.61 | 5.67
GUUCACCUAGGUCAUCGGUUG [Fam2.2 aminoacylation ribozyme variant] | 2.93 | 1.17 | 1.09 | 1.11 | 1.38 | 1.41
GUUCACCUAGGUCUUCGGGUG [Fam2.2 aminoacylation ribozyme variant] | 33.8 | 3.83 | 4.89 | 4.05 | 5.73 | 5.22
GUUCACCUAGGUUAUCGGGUG [Fam2.2 aminoacylation ribozyme variant] | 34 | 3.41 | 4.84 | 3.44 | 4.08 | 5.35
GUUCACCUAGUUCAUCGGGUG [Fam2.2 aminoacylation ribozyme variant] | 15.4 | 2.79 | 2.66 | 2.9 | 2.37 | 4.15

Sequence | self-aminoacylation (biotinyl-Phe-oxazolone) | self-aminoacylation (biotinyl-Ile-oxazolone) | self-aminoacylation (biotinyl-Met-oxazolone) | self-aminoacylation (biotinyl-Val-oxazolone) | self-aminoacylation (biotinyl-Leu-oxazolone) | self-aminoacylation (biotinyl-Trp-oxazolone)
GUUCACCUCGGUCAUCGGGUG [Fam2.2 aminoacylation ribozyme variant] | 28.6 | 3.61 | 4.1 | 4.29 | 4.52 | 3.77
GUUCACCUGGGUCAUCGGGUG [Fam2.2 aminoacylation ribozyme variant] | 39.4 | 4.47 | 5.48 | 5.58 | 5.35 | 8.32
GUUCCCCUGGUCAUCGAGUGA [Fam2.1 aminoacylation ribozyme variant] | 43.4 | 3.35 | 5.84 | 3.82 | 6.48 | 7.5
GUUGACCUAGGUCAUCGGGUG [Fam2.2 aminoacylation ribozyme variant] | 20 | 4.11 | 3.52 | 3.67 | 5.05 | 5.59
GUUUACCUAGGUCAUCGGGUG [Fam2.2 aminoacylation ribozyme variant] | 201 | 16.2 | 29 | 14.1 | 39.7 | 23.9
UAGUUAGCUAAUAGUCGCAAG [Fam3.1 aminoacylation ribozyme variant] | 2.37 | 1.72 | 2.06 | 1.52 | 1.8 | 1.11
UAGUUUACUAAUAGUCGCAAG [Fam3.1 aminoacylation ribozyme variant] | 2.86 | 1.45 | 1.41 | 1.48 | 1.36 | 1.65
UAGUUUGCCAAUAGUCGCAAG [Fam3.1 aminoacylation ribozyme variant] | 2.96 | 1.61 | 1.77 | 1.61 | 1.87 | 1.99
UAGUUUGCUAAGAGUCGCAAG [Fam3.1 aminoacylation ribozyme variant] | 1.77 | 1.12 | 1.1 | 1.18 | 0.952 | 1.22
UAGUUUGCUAAUAAUCGCAAG [Fam3.1 aminoacylation ribozyme variant] | 1.77 | 1.11 | 1.04 | 1.12 | 0.887 | 0.875
UAGUUUGCUAAUAGUCACAAG [Fam3.1 aminoacylation ribozyme variant] | 5.1 | 1.41 | 1.51 | 1.31 | 1.76 | 2.38
UAGUUUGCUAAUCGUCGCAAG [Fam3.1 aminoacylation ribozyme variant] | 1.65 | 1.62 | 1.51 | 1.31 | 1.11 | 1.59
UAGUUUGCUAGUAGUCGCAAG [Fam3.1 aminoacylation ribozyme variant] | 1.53 | 1.09 | 1.17 | 0.974 | 1.1 | 0.854
UCACAAUUCAAGCAAUCGGUC [Fam1B.1 aminoacylation ribozyme variant] | 1.8 | 1.04 | 0.989 | 0.986 | 0.949 | 1.39
UCACACUUCAAACAAUCGGUC [Fam1B.1 aminoacylation ribozyme variant] | 89.1 | 1.34 | 1.66 | 1.55 | 2.25 | 42.8
UCACACUUCAACCAAUCGGUC [Fam1B.1 aminoacylation ribozyme variant] | 54.2 | 1.45 | 1.71 | 1.75 | 2.44 | 37.1
UCACACUUCAAGCAAUCGGAC [Fam1B.1 aminoacylation ribozyme variant] | 1.56 | 0.844 | 0.732 | 0.821 | 0.598 | 0.994
UCACACUUCAAUCAAUCGGUC [Fam1B.1 aminoacylation ribozyme variant] | 35.5 | 1.11 | 1.12 | 1.08 | 1.49 | 21.3
UCACACUUCCAGCAAUCGGUC [Fam1B.1 aminoacylation ribozyme variant] | 1.01 | 1.19 | 1.14 | 1.24 | 1.02 | 0.854
UCACACUUGAAGCAAUCGGUC [Fam1B.1 aminoacylation ribozyme variant] | 0.541 | 0.744 | 0.762 | 0.774 | 0.751 | 0.486
UCACACUUUAAGCAAUCGGUC [Fam1B.1 aminoacylation ribozyme variant] | 0.841 | 0.869 | 0.694 | 0.857 | 0.791 | 0.764
UCACAGUUCAAGCAAUCGGUC [Fam1B.1 aminoacylation ribozyme variant] | 4.16 | 1.05 | 1.01 | 0.999 | 1.16 | 3.12
UCUACCCUGGUCAUCGAGUGA [Fam2.1 aminoacylation ribozyme variant] | 14.6 | 5.18 | 10.4 | 5.79 | 9.36 | 12.6
UGACUUCAAACAAUCGGUCUG [Fam1A.1 aminoacylation ribozyme variant] | 96.8 | 1.73 | 2.05 | 1.73 | 2.53 | 39.2
UGGUUUGCUAAUAGUCGCAAG [Fam3.1 aminoacylation ribozyme variant] | 8.93 | 1.81 | 1.88 | 1.51 | 1.58 | 4.47

Reference: the supplement of paper PMC9233669
